{"source": "paper PMC9915745", "about": "(ArXiv, 2023)", "proteins": {"B1": {"name": "E. coli periplasmic chaperone HdeA, wild type (natural protein)", "chain": "ADAQKAADNKKPVNSWTCEDFLAVDESFQPTAVGFAEALNNKDKPEDAVLDVQGIATVTPAIVQACTQDKQANFKDKVKGEWDKIKKDM", "modifications": "native disulfide between Cys18 and Cys66"}}, "molecular_target": "the molecule itself", "assay": "SEC-MALS", "data": [{"protein": "B1", "values": [{"measurement": "stoichiometry N", "value": 2}]}]}
